Source: publication PMC466946 (Science Advances, 2024)

Biological target: SARS-CoV-2 S ectodomain trimer (SΔTM), wild type (SARS-CoV-2, UniProt P0DTC2)
Experiment: SPR

B1: neutralizing monoclonal antibody 4A8 (NTD-directed), human IgG1 kappa (antibody, V domains shown)
VH: EVQLVESGAEVKKPGASVKVSCKVSGYTLTELSMHWVRQAPGKGLEWMGGFDPEDGETMYAQKFQGRVTMTEDTSTDTAYMELSSLRSEDTAVYYCATSTAVAGTPDLFDYYYGMDVWGQGTTVTVSS
VL: EIVMTQSPLSSPVTLGQPASISCRSSQSLVHSDGNTYLSWLQQRPGQPPRLLIYKISNRFSGVPDRFSGSGAGTDFTLKISRVEAEDVGVYYCTQATQFPYTFGQGTKVDIK
B1 showed a Kd of 0.42 ± 0.07 nM.
